Patent US6699869

Target: T1, (D)FPR-PNA
T1 chain: FPR

B1: human Factor VIIa (FVIIa) and human tissue factor (TF) complex (protein)
chain 1: ANAFLEELRPGSLERECKEEQCSFEEAREIFKDAERTKLFWISYSDGDQCASSPCQNGGSCKDQLQSYICFCLPAFEGRNCETHKDDQLICVNENGGCEQYCSDHTGTKRSCRCHEGYSLLADGVSCTPTVEYPCGKIPILEKRNASKPQGRIVGGKVCPKGECPWQVLLLVNGAQLCGGTLINTIWVVSAAHCFDKIKNWRNLIAVLGEHDLSEHDGDEQSRRVAQVIIPSTYVPGTTNHDIALLRLHQPVVLTDHVVPLCLPERTFSERTLAFVRFSLVSGWGQLLDRGATALELMVLNVPRLMTQDCLQQSRKVGDSPNITEYMFCAGYSDGSKDSCKGDSGGPHATHYRGTWYLTGIVSWGQGCATVGHFGVYTRVSQYIEWLQKLMRSEPRPGVLLRAPFP
chain 2: SGTTNTVAAYNLTWKSTNFKTILEWEPKPVNQVYTVQISTKSGDWKSKCFYTTDTECDLTDEIVKDVKQTYLARVFSYPAGNVESTGSAGEPLYENSPEFTPYLETNLGQPTIQSFEQVGTKVNVTVEDERTLVRRNNTFLSLRDVFGKDLIYTLYYWKSSSSGKKTAKTNTNEFLIDVDKGENYCFSVQAVIPSRTVNRKSTDSPVECMGQEKGEFRE
  Kcat/KM of substrate hydrolysis: Factor VII: Kcat/KM=1.27×10^4 M^-1 S^-1
